Measurements as given in patent US9243280.
“Also recorded” adds a separate entry of the source.

Experiments:
[1] = target: Ribosomal protein S1 bearing the C-terminal control peptide tag (UniProt P0AG67)
[2] = test system: GFP fusion with aminoglycoside acetyltransferase (AAC)
[3] = target: Ribosomal protein S1 bearing the C-terminal degradation peptide tag (UniProt P0AG67)

## ClpXP protease (complex of a hexamer of the ClpX unfoldase and the 14-mer ClpP protease)
[1]
  colony formation on plates with arabinose (ClpP and ClpX induced): Colony formation by the rpsA-cont strain was unaffected by ClpP-X expression
  level of S1-cont after induction of ClpP-X (anti-FLAG immunoblot of total protein): The induction of ClpP-X in the rpsA-cont strain did not alter the level of S1-cont throughout the time course
[2]
  in vitro degradation at 30 degrees C with ClpX, ClpP, ATP and an ATP regeneration system (SDS-PAGE, Coomassie staining): By 80 minutes, all of the substrate (10-fold over ClpX6) was degraded
[3]
  amount of S1-deg present 25, 35, and 45 minutes post induction, quantified against a dilution series on an immunoblot: less than 0.5% of the level present prior to induction
  level of S1-deg after induction of ClpP-X (anti-FLAG immunoblot of total protein): the level of S1-deg was reduced to approximately 50% by 15 minutes; also recorded: to trace levels at 25 minutes and beyond
  number of colony-forming units on plates under inducing against non-inducing conditions: expression of ClpP-X reduced the number of colony-forming units by more than a million-fold when the strain relied on S1-deg for growth
